Reference: article PMC11358422

How the values were obtained:
Assay in all cases: ELISA
[1] = biological target: hemoglobin (UniProt P69905+P68871); details: 5' biotin, ELISA: suspension coated in 100 mM NaHCO3 pH 9.6, 5% CSA block, aptamer in Base Pair Aptamer Folding Buffer, washes 0.02% Tween-20 in PBS, microscopy: aptamer …
[2] = biological target: gelatin (collagen) (bovine skin) (UniProt P02453+P02465); details: gelatin suspension; 5' biotin; ELISA: suspension coated in 100 mM NaHCO3 pH 9.6, 5% CSA block, aptamer in Base Pair Aptamer Folding Buffer, washes 0.02% Tween-20 in PBS; microscopy: aptamer …
Sequence of gelatin (collagen) (bovine skin) (P02453 whole entry, chain 1 of 2): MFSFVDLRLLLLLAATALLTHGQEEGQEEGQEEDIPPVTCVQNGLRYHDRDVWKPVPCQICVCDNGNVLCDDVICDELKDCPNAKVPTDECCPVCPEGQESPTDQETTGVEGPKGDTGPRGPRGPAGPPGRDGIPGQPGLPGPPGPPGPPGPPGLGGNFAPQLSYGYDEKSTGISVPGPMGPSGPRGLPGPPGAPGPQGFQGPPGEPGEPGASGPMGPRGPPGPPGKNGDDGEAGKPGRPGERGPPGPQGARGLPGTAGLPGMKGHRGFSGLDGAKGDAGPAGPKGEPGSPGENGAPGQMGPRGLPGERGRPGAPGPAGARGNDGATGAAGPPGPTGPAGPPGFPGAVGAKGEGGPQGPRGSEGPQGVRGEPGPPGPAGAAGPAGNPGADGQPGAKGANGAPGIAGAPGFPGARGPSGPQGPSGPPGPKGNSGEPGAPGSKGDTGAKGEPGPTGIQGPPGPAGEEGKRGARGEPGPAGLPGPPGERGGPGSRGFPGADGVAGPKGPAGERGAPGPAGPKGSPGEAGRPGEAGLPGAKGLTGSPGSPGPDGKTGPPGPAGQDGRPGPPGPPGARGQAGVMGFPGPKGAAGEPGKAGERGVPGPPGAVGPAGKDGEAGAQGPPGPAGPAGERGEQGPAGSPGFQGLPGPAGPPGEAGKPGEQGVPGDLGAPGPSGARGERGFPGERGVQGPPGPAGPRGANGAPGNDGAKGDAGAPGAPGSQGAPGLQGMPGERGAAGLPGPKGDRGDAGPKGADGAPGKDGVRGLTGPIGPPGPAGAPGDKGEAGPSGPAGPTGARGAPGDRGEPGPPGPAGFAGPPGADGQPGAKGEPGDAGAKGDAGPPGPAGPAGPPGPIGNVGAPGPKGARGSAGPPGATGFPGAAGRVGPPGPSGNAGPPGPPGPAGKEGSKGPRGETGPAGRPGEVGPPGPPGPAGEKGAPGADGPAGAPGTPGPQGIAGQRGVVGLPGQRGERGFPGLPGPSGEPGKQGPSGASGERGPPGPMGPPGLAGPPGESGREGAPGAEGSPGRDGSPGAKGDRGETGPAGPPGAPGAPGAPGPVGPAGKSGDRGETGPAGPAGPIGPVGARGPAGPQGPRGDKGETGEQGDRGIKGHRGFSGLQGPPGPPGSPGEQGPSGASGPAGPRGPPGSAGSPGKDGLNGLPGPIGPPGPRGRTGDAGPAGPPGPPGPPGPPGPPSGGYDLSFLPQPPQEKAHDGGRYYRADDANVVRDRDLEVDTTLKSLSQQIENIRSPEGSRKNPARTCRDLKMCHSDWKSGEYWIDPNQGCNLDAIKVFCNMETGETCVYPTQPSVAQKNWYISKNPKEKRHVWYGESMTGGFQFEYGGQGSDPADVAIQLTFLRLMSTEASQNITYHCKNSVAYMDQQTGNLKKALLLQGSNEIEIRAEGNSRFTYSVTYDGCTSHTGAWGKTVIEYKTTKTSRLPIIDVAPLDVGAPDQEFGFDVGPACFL
Sequence of gelatin (collagen) (bovine skin) (P02465 whole entry, chain 2 of 2): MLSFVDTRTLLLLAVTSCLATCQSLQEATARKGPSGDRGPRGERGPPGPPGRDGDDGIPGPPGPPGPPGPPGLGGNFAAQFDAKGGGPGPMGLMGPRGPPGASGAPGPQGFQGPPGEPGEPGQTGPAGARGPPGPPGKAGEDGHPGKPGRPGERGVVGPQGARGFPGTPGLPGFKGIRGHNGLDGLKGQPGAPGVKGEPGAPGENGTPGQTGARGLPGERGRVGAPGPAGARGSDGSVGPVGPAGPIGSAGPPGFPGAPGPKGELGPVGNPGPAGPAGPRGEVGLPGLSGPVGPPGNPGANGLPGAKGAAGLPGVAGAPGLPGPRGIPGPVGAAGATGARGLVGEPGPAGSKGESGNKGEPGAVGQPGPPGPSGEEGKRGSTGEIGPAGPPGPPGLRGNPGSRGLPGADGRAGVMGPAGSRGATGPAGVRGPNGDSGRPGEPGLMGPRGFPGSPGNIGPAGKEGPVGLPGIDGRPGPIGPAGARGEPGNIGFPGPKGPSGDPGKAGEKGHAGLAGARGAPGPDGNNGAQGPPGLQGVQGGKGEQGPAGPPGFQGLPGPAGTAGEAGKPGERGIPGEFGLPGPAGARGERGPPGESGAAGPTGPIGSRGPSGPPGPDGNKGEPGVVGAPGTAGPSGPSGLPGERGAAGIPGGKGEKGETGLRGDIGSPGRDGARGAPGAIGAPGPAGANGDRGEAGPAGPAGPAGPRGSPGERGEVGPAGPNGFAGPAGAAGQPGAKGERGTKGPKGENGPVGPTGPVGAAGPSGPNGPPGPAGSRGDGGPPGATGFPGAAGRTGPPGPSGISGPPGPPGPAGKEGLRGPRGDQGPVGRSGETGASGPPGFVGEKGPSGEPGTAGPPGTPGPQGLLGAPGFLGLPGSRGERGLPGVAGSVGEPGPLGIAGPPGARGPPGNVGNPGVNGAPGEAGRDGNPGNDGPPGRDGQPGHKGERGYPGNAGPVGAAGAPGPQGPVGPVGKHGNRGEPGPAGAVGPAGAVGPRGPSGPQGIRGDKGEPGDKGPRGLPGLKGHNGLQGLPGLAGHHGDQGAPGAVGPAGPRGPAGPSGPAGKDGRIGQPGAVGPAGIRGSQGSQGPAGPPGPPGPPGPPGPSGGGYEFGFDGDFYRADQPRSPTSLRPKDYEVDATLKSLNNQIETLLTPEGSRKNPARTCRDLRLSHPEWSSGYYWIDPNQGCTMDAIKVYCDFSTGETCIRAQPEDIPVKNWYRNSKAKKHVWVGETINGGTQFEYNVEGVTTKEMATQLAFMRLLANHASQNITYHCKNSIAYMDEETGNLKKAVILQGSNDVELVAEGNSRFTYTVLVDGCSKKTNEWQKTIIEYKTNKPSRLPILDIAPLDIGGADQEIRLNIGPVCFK

[3] = biological target: T1, beta-casein / beta-casomorphin-7 (UniProt P02666); details: raw milk; 5' biotin; ELISA: suspension coated in 100 mM NaHCO3 pH 9.6, 5% CSA block, aptamer in Base Pair Aptamer Folding Buffer, washes 0.02% Tween-20 in PBS; microscopy: aptamer …
T1 sequence: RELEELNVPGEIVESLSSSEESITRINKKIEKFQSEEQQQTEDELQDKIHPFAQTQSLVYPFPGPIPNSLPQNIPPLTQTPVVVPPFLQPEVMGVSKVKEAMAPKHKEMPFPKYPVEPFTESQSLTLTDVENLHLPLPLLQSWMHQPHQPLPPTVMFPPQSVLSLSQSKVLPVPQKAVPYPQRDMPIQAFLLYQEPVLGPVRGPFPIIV

[4] = tested on: gluten (gliadin) (wheat); details: wheat flour suspension; 5' biotin; ELISA: suspension coated in 100 mM NaHCO3 pH 9.6, 5% CSA block, aptamer in Base Pair Aptamer Folding Buffer, washes 0.02% Tween-20 in PBS; microscopy: aptamer …
[5] = biological target: T2, beta-lactoglobulin (UniProt P02754); details: raw milk; 5' biotin; ELISA: suspension coated in 100 mM NaHCO3 pH 9.6, 5% CSA block, aptamer in Base Pair Aptamer Folding Buffer, washes 0.02% Tween-20 in PBS; microscopy: aptamer …
T2 sequence: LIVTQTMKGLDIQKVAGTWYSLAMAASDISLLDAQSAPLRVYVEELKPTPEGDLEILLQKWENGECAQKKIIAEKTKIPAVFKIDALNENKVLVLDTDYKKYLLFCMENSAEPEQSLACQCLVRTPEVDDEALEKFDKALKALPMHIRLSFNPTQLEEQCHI

[6] = tested on: parvalbumin (trout ('fish traut')); details: fish trout suspension; 5' biotin; ELISA: suspension coated in 100 mM NaHCO3 pH 9.6, 5% CSA block, aptamer in Base Pair Aptamer Folding Buffer, washes 0.02% Tween-20 in PBS; microscopy: aptamer …

Sequence of hemoglobin (P69905 2-142, chain 1 of 2): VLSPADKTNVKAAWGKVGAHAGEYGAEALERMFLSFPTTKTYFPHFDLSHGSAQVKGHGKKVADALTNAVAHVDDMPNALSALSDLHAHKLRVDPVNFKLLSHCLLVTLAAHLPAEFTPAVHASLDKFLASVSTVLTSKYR
Sequence of hemoglobin (P68871 2-147, chain 2 of 2): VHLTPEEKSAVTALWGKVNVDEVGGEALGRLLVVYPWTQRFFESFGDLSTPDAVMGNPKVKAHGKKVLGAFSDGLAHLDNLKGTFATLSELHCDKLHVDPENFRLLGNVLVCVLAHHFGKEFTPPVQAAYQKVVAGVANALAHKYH

Sequence: ACGCACACCAGAGACAAGTAGCCCCCCAAACGCG [G15 T1]
- binding signal ([1]; signal at MilliQ control level): 0.015 OD405

Sequence: ATCCGTCACACCTGCTCTAGACGAATATTGTATCCTCATTAGATCAAAAACGGGTGGTGTTGGCTCCCGTAT [CTx 2R (CTx 2R-2h)]
- binding signal [2]: 0.615 OD405

Sequence: ATCCGTCACACCTGCTCTATACACATTGTGTTTACTCCCAGTTTTTTAGACTTATGGTGTTGGCTCCCGTAT [seqU5]
- binding signal [3]: 0.51 OD405

Sequence: CCAGTCTCCCGTTTACCGCGCCTACACATGTCTGAATGCC [Gli 4]
- binding signal [4]: 0.519 OD405

Sequence: CGACGATCGGACCGCAGTACCCACCCACCAGCCCCAACATCATGCCCATCCGTGTGTG [BLG14]
- binding signal [5]: 0.394 OD405

Sequence: CTAGGCGAAATATAGCTACAACTGTCTGAAGGCACCCAAT [Gli 1]
- binding signal [4]: 0.577 OD405

Sequence: GGCAGGAAGACAAACACCAGGTGAGGGAGACGACGCGAGTGTTAGATGGTAGCTGTTGGTCTGTGGTGCTGT [Hb]
- binding signal [1]: 0.388 OD405

Sequence: TTAGCGAGCTGCACACACAATGGACTCGTCATACCGTGCTGTTT [HA]
- binding signal [1]: 0.471 OD405

Sequence: TTTTTGGTTGACGGCAGTCGGCGGTATGCGCATATCGTGTTGGTA [D1]
- binding signal [2]: 0.4 OD405

Sequence: TTTTTTTTGCCAAAGGAGGCGAGAGATAAAAGATTGCGAATCCATTCG [Par1]
- binding signal [6]: 0.412 OD405
